Legend:
[1] = system: P. aeruginosa PA14 biofilm; experiment: MBEC assay, anaerobic biofilm prevention; format: cell-based, Pseudomonas aeruginosa; settings: 100 μM conalbumin, ˜10 μM Fe(II) and 10 μM Fe(III) present
Method: (§1) In some examples, biofilm prevention and dissolution were measured via a high-throughput biofilm assay (MBEC Physiology and Genetics Assay) consisting of a 96-well plate into which a 96-peg plastic lid fits. This lid also fits over a standard 96-well plate, which was subsequently used to test the efficacy of iron chelators. Inoculum was prepared by diluting (30-fold) a 1.0 McFarland suspension of P. aeruginosa PA14 in TSB. 150 μl, was dispensed into each of the 60 inner wells, while 200 μl, of sterile trypticase soy broth (TSB) was placed in each perimeter well. For dissolution experiments, plates were incubated at 37° C. for 24 h, and were transferred to an anaerobic chamber for 24 h at 37° C. in anaerobic TSB containing 50 mM KNO3. Biofilms were then exposed to conalbumin and/or Ferrozine® for 24 h. Each treatment was complemented with the addition of 80 μM ferrous ammonium sulfate. After treatment, lids were rinsed once in 50 mM HEPES, air dried for 10 min and quantified by crystal violet staining. For biofilm prevention, anaerobic inoculum was amended with conalbumin and/or Ferrozine®. Media was replaced every 24 h by transferring the MBEC lid to a sterile plate containing growth media+/− treatments, and biofilms were allowed to develop for 168 h. Biomass was quantified as described above. Biological triplicates and six technical replicates (n=18) were used for each treatment.

[2] = system: P. aeruginosa PA14 mature biofilms; experiment: MBEC assay, dissolution of mature biofilms; format: cell-based, Pseudomonas aeruginosa; settings: conalbumin; mature biofilms; 24 h exposure
Method: as §1

P. aeruginosa = experiment: Planktonic growth rates with iron chelators; format: cell-based, Pseudomonas aeruginosa
[3] = system: P. aeruginosa PA14 wild type; experiment: Flow cell biofilm development, wild type, 1% TSB with or without conalbumin
[4] = Day 6, WT, 40 μg/ml conalbumin, 10 μM PCA or PYO

B1: conalbumin: Fe(III)-binding protein of the transferrin family, an Fe(III) chelator; substantially iron-free, from Sigma-Aldrich (protein, UniProt P02789 20-705, looked up)
Ovotransferrin: APPKSVIRWCTISSPEEKKCNNLRDLTQQERISLTCVQKATYLDCIKAIANNEADAISLDGGQAFEAGLAPYKLKPIAAEVYEHTEGSTTSYYAVAVVKKGTEFTVNDLQGKTSCHTGLGRSAGWNIPIGTLLHRGAIEWEGIESGSVEQAVAKFFSASCVPGATIEQKLCRQCKGDPKTKCARNAPYSGYSGAFHCLKDGKGDVAFVKHTTVNENAPDQKDEYELLCLDGSRQPVDNYKTCNWARVAAHAVVARDDNKVEDIWSFLSKAQSDFGVDTKSDFHLFGPPGKKDPVLKDLLFKDSAIMLKRVPSLMDSQLYLGFEYYSAIQSMRKDQLTPSPRENRIQWCAVGKDEKSKCDRWSVVSNGDVECTVVDETKDCIIKIMKGEADAVALDGGLVYTAGVCGLVPVMAERYDDESQCSKTDERPASYFAVAVARKDSNVNWNNLKGKKSCHTAVGRTAGWVIPMGLIHNRTGTCNFDEYFSEGCAPGSPPNSRLCQLCQGSGGIPPEKCVASSHEKYFGYTGALRCLVEKGDVAFIQHSTVEENTGGKNKADWAKNLQMDDFELLCTDGRRANVMDYRECNLAEVPTHAVVVRPEKANKIRDLLERQEKRFGVNGSEKSKFMMFESQNKDLLFKDLTKCLFKVREGTTYKEFLGDKFYTVISSLKTCNPSDILQMCSFLEGK
modifications: iron-free
notes: substantially iron-free, from Sigma-Aldrich
Prevention of biofilm growth [1]: ineffective in preventing biofilm growth
Reduction of established biomass [2]: did not significantly reduce established biomass
Effect on planktonic growth rates (P. aeruginosa): Neither compound affected planktonic growth rates
Max. biofilm thickness [3, 4]: 32 μm
Substratum coverage [3, 4]: 11.8 ± 1.3%
Total biomass ([3]; Day 6, WT, additives to 1% TSB: 40 μg/ml conalbumin, 10 μM PCA or PYO): 0.80 ± 0.08 μm^3/μm^2
Avg. thickness of biomass ([3]; Day 6, WT, calculated for the area covered by biomass, 40 μg/ml conalbumin, 10 μM PCA or PYO): 9.0 ± 0.7 μm
Biofilm formation with conalbumin (iron-free form) added ([3]; wild type, 1% TSB, 40 μg/ml conalbumin): neither strain formed biofilms

Reference: patent publication US11820973B2, “Methods and system for interfering with viability of bacteria and related compounds and compositions” (CALIFORNIA INSTITUTE OF TECHNOLOGY, priority 2011, dated 2023)
